A short description of the series: label from the status in PepcDB records.
With “MNVDFINPFLDSLLNVLKTMANMELKPGKPNLKKDNLAKGDVSGLIGMVGPQTKGSLSITFEETLILEIMNKMLGEKPESIDEEVTDLVGELTNMVTGGAKNLLSDKGYEFDMATPIVVSGKNHTIAHKSDGQKIIMPFSSIYGTAYIEICFEG”, the protein production result is reported as “not failed”.
As for “ARHPQRVVAAILVAPASPESFSENGHILPEHDDTPTIRNLLPKQTLGICGLVIASENDPWMPFNQAASLAKSFGLPTINLGLSGHINVDSGHGQWPLIDVLVGNFL”, the entry is “failed”.
“MHSQFAPRLRQLRWYEIVLIATVAAALCIYLPIVVKRSAVQGFGDVQVFFRAAWAVWTGYPLYQVADHHGWTYHYPPTFALLMGPFAHPLDGFPKPDWALSLPLSVATWYVFSAAAMLAAVDLWARGLERALPPSLDQADWSAWWLLRLGPVAALLPFFGDGLGRGQPSAVVLLTMVAFLVLYLRGRIYLAACALALGFTIKLFPLALLIFPVLRRDLRTVLATFGFSAVFLFVVPMLCLGPSEVVKLYGAMWTEHLSGIFTGVPNPKIADEITFTSYDMLSIGAMLARIAAGGLPETDTLPRFATICQLMFDAVVIGALLWLGHGRFWRLRGPQPPLGPSLLIGGALLCAALPVMLSVSQPNYVAFAAPLVALVQFEVWRRRGRVCVVPALIAWSGLMWLGMIATEGGAWQPLRVVGLVTPALIALLLWGFASLRRAAAPP”: the protein production result is given as “failed”.
As to “MDLVVITETTIPTKITHVNKKSSDELLRKFADPDDVDESSKSTKRRKKSAKSSSREKGVDIESNTSGLVERKRLLLAPASKRRSLFIRQLASGKSHLRNKSLVRTIGKTWRKTMEGASRVFIEKHYNRHRRLTNDVV”, the protein production entry is given as “failed”.
As for “MTTRRLPRPCRFNPTIHVVLAVLALLLSGLAAFADLPALTGRVVDDAGIIDAGTRAALTQKLADFEKKGSDQIVVATIPSLGGEEIEPYANRLFRFWKLGQAGENNGVLLLVAKNDHKMRIEVGYGLEGTLTDLHTKLIIENDMVPAFRAGDFSGGISKAVDDMVMVLEGNPEELEARGKRNPADSSTPIDPIVTVFLILWATMFFGGLAMAFLPPMFGTKLSPGVYRWLGMTFRYGKGPSGSSGGSGWTTGSSGGGWSSGSSSSGWSSGSSSSGGGFSGGGGSSGGGGSSGSW”, the entry is “failed”; as for “MSVGVEVLTISFVVIVIAAVIGFLARSKNVSLEQWAVGGRNIGALLIWFLLAGEIYTAFTFLGVPGYAYAFGAPAYYALSYGVLAYLTSYFILPKIWRISKKKNIMTQPDFFKERYQSTLLATIVAVVGVVFMVPYLELQVSAITDILEVMGYNVIMPAYVMIITFVLTAGYVIMNGLRSATFTAFFKDGLALIVIFSALIVIPAVQFGDLNNMMHRMVTNYSEYLYFPGHSELGLSWFVSVVLMSALGFFMWPHSFQSYISAKNDNVLKKNAVFLPVYNVLLVITVFMGFAALLYNPHLSNADDAFLIVARASFPSWWNGVVAGAITLGSMVPASVLLIASSTIISKNLYKDLINKKASDSSVKFIAQVFVAIITGVALLFAIEFPALFVNLLLLGYSGITLFFPGIVMGITWRKVTAVGVISGIITGLIVNAVFFLPLSSYSHIIYPGLVGLFADTVVTILVSLVTKAPSGEVIEEFVTA”, “failed”; as for “MSQETPYIFDARTADFDQSVIENSFHKPVLVDFWAEWCAPCKALMPMLQQIAESYQGELLLAKVNCDIEQDIVARFGIRSLPTVVLFKDGQPVDGFAGAQPESAVRAMLEPHVQMPPPPAADPLEQAEALFAEGRIGDAEALLKVLLGEDNSNAKALILYARCLAERGELGEAQTVLDAVKSDEHKAALAGAKAQITFLKQAADLPDAAELKARLAKDPQDDEALYQLAIQQLARQQYEAALEALLKLFMRNRSYNEGIAHKTLLQVFDLLGNDHPLVTAYRRKLFAALY”, “failed”.
The value for “MSSEGRNHNWDYAAIGTPEDFLASWSASRGNLRRFFEDHAAAPINDAAQRQAGEAAATQAVAAIYGMELNEFNAGVDAVAGAIESAGAIHVSIPDPDVPQDVGAAAFFDVDNTLIQGSSLIVFAQGLFRKKFFTIKEILPVVWKQVKFKLTGSENAEDVSRGREQALEFIKGRPVQELVDLCEEIVDQRMADKMWPGTKQLADMHIAAGHQVWLVSATPVQLAQILAQRLGFTGAIGTVAEAKDGVFTGRLVGDILHGPGKRHAVAALASIEQLDLTRCTAYSDSINDLPMLSMVGTAVAVNPDSKLRKEAETRGWDVRDFRSIRKATREYGIPALVTAAFSVAGWRLRRRWRKQ” was “failed”.
As for “RSRTKLLLLTVIPLIVITALVMAVNYQSGLSTLQKELENYRTDLIDAKKKELQAYLMMGVTAVKPLYESDKAGENQAQAKQILKAMRFDSDGYFFAYDSQGVNTLHAIKPELEGKNLYGMKD”, the entry is “failed”; as for “MEAKLQVGVLGFGTVGSGVIHILEEHQEKISQVTGYHISVKKVLVRDLEKNRRYETKGFELTTNPSDVLDDPEIAVVVEVMGSITTAREYILQALKAGKHVVTANKDLIALHGDELVAVAQANNCDLFYEASVAGGIPILRTIVNSLAADKIQKVMGIVNGTTNFMLTKMTTEKKSYEEVLAEAQALGFAESDPTNDVDGIDAARKMVIMTRLAFGMNVNLDNVETSGIRGISPEDIEVAYQLGYKIKLVGTAEETNGTVNVNVGPVLLPKAHPLAGVNYENNAVFVTGAAVGETMFYGPGAGELPTATSVVSDLITVAKNSRLGTNGNAFNSYKHETKHTPKEQVFSKYYLRLTMDDKTGTFLKLTQIFAEAGVGFDKILQQPYDDFTATVVIVTHSTSQAQLEQAITRVKNEPEMQMLAKYSVVEG”, “not failed”.
In the case of “MNLGAAEEESAQEIHLPADINWEMLDKSKFFVLGAALFSGVSGALYPAVLMKTRQQVCHSQGSCIKTAFTLVRHEGLRGLYRGFGTSLMGTIPARALYMTALEVTKSNVGSAAVSLGLTEAKAAAVANAVGGLSAAMAAQLVWTPVDVVSQRLMVQGSAGLVNASRCNYVNGFDAFRKIVRADGPKGLYRGFGISILTYAPSNAVWWASYSVAQRMVWGGIGCYVCKKDEESGNNSTTMKPDSKTIMAVQGVSAAIAGSVSALITMPLDTIKTRLQVLDGEDSSNNGKRGPSIGQTVRNLVREGGWTACYRGLGPRCASMSMSATTMITTYEFLKRLSAKNHDGFYSKS”, the protein production result is reported as “failed”.
The value for “MSLLEQLDKNIAASGGLIVSCQPVPGSPLDKPEIVAAMALAAEQAGAVAVRIEGIDNLRMTRSLVSVPIIGIIKRDLDESPVRITPFLDDVDALAQAGAAIIAVDGTARQRPVAVEALLARIHHHHLLAMADCSSVDDGLACQRLGADIIGTTMSGYTTPDTPEEPDLPLVKALHDAGCRVIAEGRYNSPALAAEAIRYGAWAVTVGSAITRLEHICGWYNDALKKAAS” was “not failed”; that for “MDTNNFTVKVEYVDADGAEIAPSDILTDYHYVSTPKDIPGYKLREIPHNATGNITDTGIIVRYIYLEHHHHHH” was “not failed”.
For “MAKGTAVEFQPGGGQARDVFSIAAQAASPAADAGTSAAPAQAAPAPAAVASQAQHFGRTAEPAEPTDLWSYFWNGVTRNYFNFAGRARRKEYWGYCLFWTIALLVIVGIGVFADAEMGNFDSAEMPAMTVGLFGLFLLATFLPSLGMIVRRLHDLGLTGWLCLLILIPTFGSLIILVFALIPTQGRENQWGPVPAGVRV”, the protein production result is listed as “failed”.
The value for “MRNIAVILAGGSGQRLGENIPKQFLKIAGKKVIEHTITVFQNHSLIDEIVVVVHPDYIRDVEDISLRNSFNKLKKILLGGKERYHSSLAAINAYDEEVNLLFHDSVRPLVNERIINDCIRALLTYNAVDVAIPTTDTIIQVDDNNEIVKIPSRILLRNGQTPQAFKRSVIKAAYEKALLDPLFKTTDDCGVVLKYLPDESIYVVNGEQFNMKLTYKEDIFLLDKLFQLRSIRNQPTLLEKSEMEELQGKVVVVFGGTYGIGQDICEICREYKTSLYVYSRSTGVDVSNSQSVRRVLSEIFDKEGRIDWIVNTAGILDKQPLANMSYEAVHQSIDVNYLGNIIVAKESFFYLKESKGSLLFFTSSSYTRGRALYSLYSSSKAAIVNFVQALSEEWFEYGIRVNCINPERTKTPMRIQNFGNEPEDTLLEPKVVAIVSVNTLLSEMTGEVVDVKRLEHHHHHH” was “failed”; that for “MARGPPRALASTRSPSTHMTAISNPDSEDLHIIIAGAGRVGHRTARVLRDQGHEAYLIDKDPDIVEDARQALGATVIEGDATDPKVLAQADPERADVLAALTETGATNFAICAVVKHLTGDIRTVARIERPDQLDEEGTFFDRVVYPERAGAKSAVNQILTGDTRVFEDVGGDLDVAEVQVAPEAPAAGKQLDAAALPDQSHVVFDVTNDEVPQPSTELVPGHRYLIAAAPGVAREARRRLVG” was “failed”.
